PMC10786891, “Massively parallel profiling of RNA-targeting CRISPR-Cas13d”

B1: target 1 insC 3' of 10 (mixed)
RNA 1: CACCCGUGCAAAAAUGCAGGGGUCUAAAACUGAGCGGAUAACCUCUCUAUGG
RNA 2: GGGAAUGGAUCCACAUCUACGAAUUCGUACCAUAGAGAGGUUCAUCCGCUCACCGAGAUCGGAAGAGCACACGU
B2: target 1 A1C,U19G (mixed)
RNA 1: CACCCGUGCAAAAAUGCAGGGGUCUAAAACUGAGCGGAUAACCUCUCUAUGG
RNA 2: GGGAAUGGAUCCACAUCUACGAAUUCGUACCAGAGAGAGGUUAUCCGCUCCCCGAGAUCGGAAGAGCACACGU
B3: target 1 C6U,G15A (mixed)
RNA 1: CACCCGUGCAAAAAUGCAGGGGUCUAAAACUGAGCGGAUAACCUCUCUAUGG
RNA 2: GGGAAUGGAUCCACAUCUACGAAUUCGUACCAUAGAAAGGUUAUCUGCUCACCGAGAUCGGAAGAGCACACGU
B4: target 1 insA 3' of 17,insU 3' of 15 (mixed)
RNA 1: CACCCGUGCAAAAAUGCAGGGGUCUAAAACUGAGCGGAUAACCUCUCUAUGG
RNA 2: GGGAAUGGAUCCACAUCUACGAAUUCGUACCAUAGAAGUAGGUUAUCCGCUCACCGAGAUCGGAAGAGCACACGU
B5: target 1 C7G,C22U (mixed)
RNA 1: CACCCGUGCAAAAAUGCAGGGGUCUAAAACUGAGCGGAUAACCUCUCUAUGG
RNA 2: GGGAAUGGAUCCACAUCUACGAAUUCGUAUCAUAGAGAGGUUAUGCGCUCACCGAGAUCGGAAGAGCACACGU
B6: target 1 insA 3' of 13,insG 3' of 4 (mixed)
RNA 1: CACCCGUGCAAAAAUGCAGGGGUCUAAAACUGAGCGGAUAACCUCUCUAUGG
RNA 2: GGGAAUGGAUCCACAUCUACGAAUUCGUACCAUAGAGAGAGUUAUCCGCGUCACCGAGAUCGGAAGAGCACACGU
B7: target 1 insC 3' of 5,insU 3' of 1 (mixed)
RNA 1: CACCCGUGCAAAAAUGCAGGGGUCUAAAACUGAGCGGAUAACCUCUCUAUGG
RNA 2: GGGAAUGGAUCCACAUCUACGAAUUCGUACCAUAGAGAGGUUAUCCGCCUCAUCCGAGAUCGGAAGAGCACACGU
B8: target 1 insG 3' of 8,insC 3' of 8 (mixed)
RNA 1: CACCCGUGCAAAAAUGCAGGGGUCUAAAACUGAGCGGAUAACCUCUCUAUGG
RNA 2: GGGAAUGGAUCCACAUCUACGAAUUCGUACCAUAGAGAGGUUAUGCCCGCUCACCGAGAUCGGAAGAGCACACGU
B9: target 1 insA 3' of 17,insG 3' of 6 (mixed)
RNA 1: CACCCGUGCAAAAAUGCAGGGGUCUAAAACUGAGCGGAUAACCUCUCUAUGG
RNA 2: GGGAAUGGAUCCACAUCUACGAAUUCGUACCAUAGAAGAGGUUAUCCGGCUCACCGAGAUCGGAAGAGCACACGU
B10: target 1 C4A,U10A (mixed)
RNA 1: CACCCGUGCAAAAAUGCAGGGGUCUAAAACUGAGCGGAUAACCUCUCUAUGG
RNA 2: GGGAAUGGAUCCACAUCUACGAAUUCGUACCAUAGAGAGGUAAUCCGAUCACCGAGAUCGGAAGAGCACACGU
B11: target 1 C2A,C7U (mixed)
RNA 1: CACCCGUGCAAAAAUGCAGGGGUCUAAAACUGAGCGGAUAACCUCUCUAUGG
RNA 2: GGGAAUGGAUCCACAUCUACGAAUUCGUACCAUAGAGAGGUUAUUCGCUAACCGAGAUCGGAAGAGCACACGU
B12: target 1 insC 3' of 20,insU 3' of 15 (mixed)
RNA 1: CACCCGUGCAAAAAUGCAGGGGUCUAAAACUGAGCGGAUAACCUCUCUAUGG
RNA 2: GGGAAUGGAUCCACAUCUACGAAUUCGUACCACUAGAGUAGGUUAUCCGCUCACCGAGAUCGGAAGAGCACACGU
B13: target 1 insU 3' of 4,insU 3' of 2 (mixed)
RNA 1: CACCCGUGCAAAAAUGCAGGGGUCUAAAACUGAGCGGAUAACCUCUCUAUGG
RNA 2: GGGAAUGGAUCCACAUCUACGAAUUCGUACCAUAGAGAGGUUAUCCGCUUCUACCGAGAUCGGAAGAGCACACGU
B14: target 1 insC 3' of 12,insC 3' of 5 (mixed)
RNA 1: CACCCGUGCAAAAAUGCAGGGGUCUAAAACUGAGCGGAUAACCUCUCUAUGG
RNA 2: GGGAAUGGAUCCACAUCUACGAAUUCGUACCAUAGAGAGGCUUAUCCGCCUCACCGAGAUCGGAAGAGCACACGU
B15: target 1 insU 3' of 17,insG 3' of 14 (mixed)
RNA 1: CACCCGUGCAAAAAUGCAGGGGUCUAAAACUGAGCGGAUAACCUCUCUAUGG
RNA 2: GGGAAUGGAUCCACAUCUACGAAUUCGUACCAUAGUAGAGGGUUAUCCGCUCACCGAGAUCGGAAGAGCACACGU
B16: target 1 insA 3' of 17,insC 3' of 8 (mixed)
RNA 1: CACCCGUGCAAAAAUGCAGGGGUCUAAAACUGAGCGGAUAACCUCUCUAUGG
RNA 2: GGGAAUGGAUCCACAUCUACGAAUUCGUACCAUAGAAGAGGUUAUCCCGCUCACCGAGAUCGGAAGAGCACACGU
B17: target 1 insU 3' of 7,insG 3' of 2 (mixed)
RNA 1: CACCCGUGCAAAAAUGCAGGGGUCUAAAACUGAGCGGAUAACCUCUCUAUGG
RNA 2: GGGAAUGGAUCCACAUCUACGAAUUCGUACCAUAGAGAGGUUAUCUCGCUCGACCGAGAUCGGAAGAGCACACGU
B18: target 1 C4A,A20U (mixed)
RNA 1: CACCCGUGCAAAAAUGCAGGGGUCUAAAACUGAGCGGAUAACCUCUCUAUGG
RNA 2: GGGAAUGGAUCCACAUCUACGAAUUCGUACCUUAGAGAGGUUAUCCGAUCACCGAGAUCGGAAGAGCACACGU
B19: target 1 C2A,C7A (mixed)
RNA 1: CACCCGUGCAAAAAUGCAGGGGUCUAAAACUGAGCGGAUAACCUCUCUAUGG
RNA 2: GGGAAUGGAUCCACAUCUACGAAUUCGUACCAUAGAGAGGUUAUACGCUAACCGAGAUCGGAAGAGCACACGU
B20: target 1 C7G,A14U (mixed)
RNA 1: CACCCGUGCAAAAAUGCAGGGGUCUAAAACUGAGCGGAUAACCUCUCUAUGG
RNA 2: GGGAAUGGAUCCACAUCUACGAAUUCGUACCAUAGAGUGGUUAUGCGCUCACCGAGAUCGGAAGAGCACACGU
B21: target 1 C4G,U8G (mixed)
RNA 1: CACCCGUGCAAAAAUGCAGGGGUCUAAAACUGAGCGGAUAACCUCUCUAUGG
RNA 2: GGGAAUGGAUCCACAUCUACGAAUUCGUACCAUAGAGAGGUUAGCCGGUCACCGAGAUCGGAAGAGCACACGU
B22: target 1 G5A,A9G (mixed)
RNA 1: CACCCGUGCAAAAAUGCAGGGGUCUAAAACUGAGCGGAUAACCUCUCUAUGG
RNA 2: GGGAAUGGAUCCACAUCUACGAAUUCGUACCAUAGAGAGGUUGUCCACUCACCGAGAUCGGAAGAGCACACGU
B23: target 1 del7 (mixed)
RNA 1: CACCCGUGCAAAAAUGCAGGGGUCUAAAACUGAGCGGAUAACCUCUCUAUGG
RNA 2: GGGAAUGGAUCCACAUCUACGAAUUCGUACCAUAGAGAGGUUAUCGCUCACCGAGAUCGGAAGAGCACACGU
B24: target 1 insU 3' of 12,insC 3' of 8 (mixed)
RNA 1: CACCCGUGCAAAAAUGCAGGGGUCUAAAACUGAGCGGAUAACCUCUCUAUGG
RNA 2: GGGAAUGGAUCCACAUCUACGAAUUCGUACCAUAGAGAGGUUUAUCCCGCUCACCGAGAUCGGAAGAGCACACGU
B25: target 1 C7U,G17C (mixed)
RNA 1: CACCCGUGCAAAAAUGCAGGGGUCUAAAACUGAGCGGAUAACCUCUCUAUGG
RNA 2: GGGAAUGGAUCCACAUCUACGAAUUCGUACCAUACAGAGGUUAUUCGCUCACCGAGAUCGGAAGAGCACACGU
B26: target 1 A1G,U19G (mixed)
RNA 1: CACCCGUGCAAAAAUGCAGGGGUCUAAAACUGAGCGGAUAACCUCUCUAUGG
RNA 2: GGGAAUGGAUCCACAUCUACGAAUUCGUACCAGAGAGAGGUUAUCCGCUCGCCGAGAUCGGAAGAGCACACGU
B27: target 1 insU 3' of 18,insG 3' of 4 (mixed)
RNA 1: CACCCGUGCAAAAAUGCAGGGGUCUAAAACUGAGCGGAUAACCUCUCUAUGG
RNA 2: GGGAAUGGAUCCACAUCUACGAAUUCGUACCAUAUGAGAGGUUAUCCGCGUCACCGAGAUCGGAAGAGCACACGU
B28: target 1 insG 3' of 14,insA 3' of 6 (mixed)
RNA 1: CACCCGUGCAAAAAUGCAGGGGUCUAAAACUGAGCGGAUAACCUCUCUAUGG
RNA 2: GGGAAUGGAUCCACAUCUACGAAUUCGUACCAUAGAGAGGGUUAUCCAGCUCACCGAGAUCGGAAGAGCACACGU

Molecular target: T1, EsCas13d, nuclease-dead (Eubacterium siraeum, UniProt B0MS50, R295A;H300A;R849A;H854A)
T1 sequence: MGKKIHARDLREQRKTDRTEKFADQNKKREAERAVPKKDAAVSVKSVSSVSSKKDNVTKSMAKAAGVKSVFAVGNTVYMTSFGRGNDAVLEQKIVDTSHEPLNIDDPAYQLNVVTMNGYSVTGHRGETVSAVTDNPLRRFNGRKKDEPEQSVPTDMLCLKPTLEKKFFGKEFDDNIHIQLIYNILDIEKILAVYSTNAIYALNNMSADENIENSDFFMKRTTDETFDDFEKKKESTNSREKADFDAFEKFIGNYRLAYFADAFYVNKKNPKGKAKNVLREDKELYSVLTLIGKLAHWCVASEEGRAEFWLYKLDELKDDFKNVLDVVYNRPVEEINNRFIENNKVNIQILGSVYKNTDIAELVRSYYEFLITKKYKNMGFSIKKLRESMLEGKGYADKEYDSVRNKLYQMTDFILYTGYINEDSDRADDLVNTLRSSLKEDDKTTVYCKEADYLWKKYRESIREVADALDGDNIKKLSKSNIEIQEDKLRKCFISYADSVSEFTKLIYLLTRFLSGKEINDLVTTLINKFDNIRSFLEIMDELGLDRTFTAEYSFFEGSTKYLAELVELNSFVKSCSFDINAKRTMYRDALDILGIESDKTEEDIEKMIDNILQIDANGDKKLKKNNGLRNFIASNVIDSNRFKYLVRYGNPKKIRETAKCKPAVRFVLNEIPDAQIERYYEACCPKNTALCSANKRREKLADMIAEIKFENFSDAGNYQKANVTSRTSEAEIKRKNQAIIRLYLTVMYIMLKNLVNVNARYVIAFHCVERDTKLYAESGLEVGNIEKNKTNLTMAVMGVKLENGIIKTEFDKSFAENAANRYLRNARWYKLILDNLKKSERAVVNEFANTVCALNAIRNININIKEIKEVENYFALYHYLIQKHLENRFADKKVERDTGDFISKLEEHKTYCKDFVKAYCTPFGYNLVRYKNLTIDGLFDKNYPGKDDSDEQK
Experiment: crRNA (strand 1, pre-loaded); Mg2+; 40 mM Tris-HCl pH 7.5, 150 mM NaCl, 6 mM MgCl2, 1 mM DTT, 0.1% Tween-20, 0.2 mg/ml BSA; 25 C; 10 min per concentration, then washed
Details: tags: His6-TwinStrep-SUMO cleaved; N-terminal SNAP kept (SNAP-Surface 488); label: 3' end held by stalled T7 RNA polymerase

Compared with B1, B2 is 5.2-fold higher in Kd: 15.5 ± 0.9 nM for the first, ~80 nM for the second. The first binds more tightly here.

B3 and B4 are within error of each other in Kd: 11.9 ± 0.5 nM for the first, 12 ± 4 nM for the second.

First: B5
Second: B6
The Kd of the first is 4.5-fold higher: 13.7 ± 0.7 nM for the first, 3.04 ± 0.19 nM for the second. The second binds more tightly here.

B7 and B8 are within 1.5-fold of each other in Kd: 9.61 ± 0.26 nM for the first, 12.9 ± 0.5 nM for the second.

Compared with B9, B10 is 3.7-fold lower in Kd: 19.4 ± 0.8 nM for the first, 5.3 ± 0.4 nM for the second.

Compared with B11, B12 is 1.9-fold higher in Kd: 5.2 ± 0.4 nM for the first, 10 ± 0.7 nM for the second. The first binds more tightly here.

B13 and B14 are within 1.5-fold of each other in Kd: 9.5 ± 0.4 nM for the first, 13.4 ± 0.7 nM for the second.

B15 and B16 are within error of each other in Kd: 23 ± 5 nM for the first, 18.6 ± 1.3 nM for the second.

B17 and B18 are within 1.5-fold of each other in Kd: 15.3 ± 1.2 nM for the first, 21.1 ± 3.3 nM for the second.

First: B19
Second: B20
The Kd of the first is 12-fold lower: 5.34 ± 0.16 nM for the first, 66 ± 16 nM for the second. The first binds more tightly here.

Going from B21 to B22, the Kd rises from 5.52 ± 0.21 nM to 19.3 ± 1.1 nM (3.5-fold).

Going from B23 to B24, the Kd rises from 8.01 ± 0.33 nM to 19.5 ± 1 nM (2.4-fold). The first binds more tightly here.

B25 and B26 are within error of each other in Kd: 77 ± 35 nM for the first, 51 ± 6 nM for the second.

B27 and B28 are within 1.5-fold of each other in Kd: 20 ± 1.2 nM for the first, 14.6 ± 1.3 nM for the second.
